In patent US20070203054A1 (YISSUM RESEARCH DEVELOPMENT COMPANY OF THE HEBREW …, published 2007):

B1: CD99-Ig fusion protein (Fc fusion)
chain: DGGFDLSDALPDNENKKPTAIPKKPSAGDDFDLGDAVVDGENDDPRPPNPPKPMPNPNPNHPSSSGSFSDADLADGVSGGEGKGGSDGGGSHRKEGEEAD

Tests used:
[1] = molecular target: HA of influenza A/Beijing (A/Beijing/262/95-like (H1N1)) on infected cells (influenza A virus A/Beijing/262/95-like (H1N1))
[2] = molecular target: HA of influenza A/Moscow (A/Moscow/10/99-like (H3N2)) on infected cells (influenza A virus A/Moscow/10/99-like (H3N2))
[3] = molecular target: HA of influenza A/Sydney (A/Sydney/5/97-like (H3N2)) on infected cells (influenza A virus A/Sydney/5/97-like (H3N2))
[4] = molecular target: HA of influenza virus New Caledonia (H1N1) on infected cells (influenza A virus New Caledonia (H1N1))
[5] = molecular target: HA of influenza virus Yamanashi (B strain) on infected cells (influenza B virus Yamanashi)
[6] = molecular target: hemagglutinin-neuraminidase of Sendai virus (SV) on infected cells (Sendai virus)

Molecule	MFI [1]	MFI [2]	MFI [3]	MFI [4]	MFI [5]	MFI [6]
NKp46-Ig fusion protein (from UniProt O76036 22-254) (Fc fusion)	44	20	58	315	–	–
NKp30-Ig fusion protein (from UniProt O14931 19-135) (Fc fusion)	4	8	8	10	–	–
NKp46D1-Ig fusion protein (membrane distal domain of NKp46 fused to Fc of human IgG1) (from UniProt O76036 22-120) (Fc fusion)	7	8	10	5	8	8
NKp46D2-Ig fusion protein produced in COS cells (membrane proximal domain of NKp46 fused to Fc of human IgG1) (from UniProt O76036 121-254) (Fc fusion)	77	50	100	420	51	95
NKp44-Ig fusion protein (from UniProt O95944 22-190) (Fc fusion)	128	24	120	518	117	350
B1	0	0	1	0	0	0.5
